This is an account of results in the DeepSol protein solubility set.

The series in a line: soluble on expression in E. coli; label from the status in PepcDB or PDB records.
For “MWAFPERFEGRHVRLEPLALAHLPAFLRHYDPEVYRFLSRAPVAPTEEALRAHLEGLLGEPGRVNWAILFGKEVAGRISVIAPEPEHAKLELGTMLFKPFWGSPANKEAKYLLLRHAFEVLRAERVQFKVDLRNERSQRALEALGAVREGVLRKNRRLPDGAFRDDVVYSVLKEEWPGVKARLEARLYGASGNP”, the “soluble on expression in E. coli” value was “soluble”.

With “MWEPSKRLKPVPILPELKEIGEQLQAQREQAMIEWAQTGYVKKLKARLVGRIIHGLGAGHIRETSLTIHPVYGLPYIPASSVKGLVRHWFIEAYCEGEEKQLNEHEIGREIFGTQGNKGIVQFHDIFLIESLQLTGDVLAVHMKEYYEGNRAATDDQKPVPVSFWTVMATEVDIYLTANRSAPQNDEETVRLLEAAALWTQQALTEWGIGSKTSSGYGRFAEVYDVTEMEFLPIVQKEQVRLEQQKKEREMLEQ”, the “soluble on expression in E. coli” value is recorded as “not soluble”.

For “MWLKVGGLLRGTGGQLGQTVGWPCGALGPGPHRWGPCGGSWAQKFYQDGPGRGLGEEDIRRAREARPRKTPRPQLSDRSRERKVPASRISRLANFGGLAVGLGLGVLAEMAKKSMPGGRLQSEGGSGLDSSPFLSEANAERIVQTLCTVRGAALKVGQMLSIQDNSFISPQLQHIFERVRQSADFMPRWQMLRVLEEELGRDWQAKVASLEEVPFAAASIGQVHQGLLRDGTEVAVKIQYPGIAQSIQSDVQNLLAVLKMSAALPAGLFAEQSLQALQQELAWECDYRREAACAQNFRQLLANDPFFRVPAVVKELCTTRVLGMELAGGVPLDQCQGLSQDLRNQICFQLLTLCLRELFEFRFMQTDPNWANFLYDASSHQVTLLDFGASREFGTEFTDHYIEVVKAAADGDRDCVLQKSRDLKFLTGFETKAFSDAHVEAVMILGEPFATQGPYDFGSGETARRIQDLIPVLLRHRLCPPPEETYALHRKLAGAFLACAHLRAHIACRDLFQDTYHRYWASRQPDAATAGSLPTKGDSWVDPS”, the “soluble on expression in E. coli” value is “not soluble”.

“MWQQKSFQQNEKGVLYLVPTPIGNLEDMTFRAIRILKEADLIAAEDTRQTKKLCNYFEIETPVMSYHEHNKEVSGKKILEKLDEGKTVALVSDAGMPCISDPGYDIVVEAVAEQYHVIPLPGANAALTALIASGLQTKQFYFYGFLQRNKKERKMELEKLRYVQTTMMFYEAPHRLDDTLISMQEVLGNREIVLCRELTKKFEEFIRGTVEEAIEWTKQNEVRGEFCILVAGSTEEPAPEEQWWESISVYNHIEHYINEKGMNSKEAIKTVAKDRDLSKRDVYQIYHVDKK”: the “soluble on expression in E. coli” value is “soluble”.

As for “MWRIELKHAVNWELKMKFFVLPELPTPDVVESGVWRRAIVLDGRAVAVMAYPESERTIVVEGNFENREWEAVRRKLVEYLGLQNPEELYRFMDGDEKLRMLKNRFYGFGRAGLMSMSVFEGIAKAIIQQQISFVVAEKLAAKIVGRFGDEVEWNGLKFYGFPTQEAILKAGVEGLRECGLSRRKAELIVEIAKEENLEELKEWGEEEAYEYLTSFKGIGRWTAELVLSIALGKNVFPADDLGVRRAVSRLYFNGEIQSAEKVREIARERFGRFARDILFYLFLYDRFFSKKTELV”, the “soluble on expression in E. coli” value was “soluble”.

Take “MWRRYPQVEEKLGWYSRVMRGEEPPKYRIVRTFEVGFDSEDDIRRALTEELWREHERVAGEFRRLFRSLREGGSYEGDIKDARPSLMDVKVELVRRLASPCELCERRCRVERAKSRRGACRLAWEVYVHSAFLHLGEEAPLVPSGTIFYGGCNFTCVFCQNWDVSQWKARDAHIVTPRRLGEIQDRLAEAGARNINHVGGDPVPSLHVIVESMKYASHLKPQLWNSNMYMTLEALDILVDLIDIWLPDLKFGNDRCAMRLSAVPRYWEVTTRNILLAAEHGDMIIRHLVMPGHVECCTKPVLRWIAENLGDRVLVNIMDQYHPDNLVLRMPHKWPEIARRPSRREIEEAWRYAEQLGLDWEPVTK”: the “soluble on expression in E. coli” value is recorded as “not soluble”.

As to “MWYRALFPGATWRIPAKEGKSIYLTFDDGPIPEITPWVLDTLDELGVKATFFCVADNVRRYPDLFAEIQRRGHQVGNHTFHHLQGLKVRTRTYLKDVEEADRLINSRFFRPPHGHLRFMQTLLLSNHYDIIMWDVITRDYNARLSPDTVFGSVVRYARNGSIITFHDSLKAAPNMQQAMPRAVRWLLDEGYTFKCLGDPAD”, the “soluble on expression in E. coli” value is recorded as “not soluble”.

Regarding “MYAVTFDLDTNCLNENAVNLSKVYSDIRKFMEQHGFKWQQGSVYFGDETINAVTCVATVQILAKQIPSFAVCVKDVRMLKIEENNDLMPAIKIVL”, the “soluble on expression in E. coli” value is recorded as “not soluble”.

Turning to “MYDWFSEMRKKDPVYYDGNIWQVFSYRYTKEVLNNFSKFSSDLTGYHERLEDLRNGKIRFDIPTRYTMLTSDPPLHDELRSMSADIFSPQKLQTLETFIRETTRSLLDSIDPREDDIVKKLAVPLPIIVISKILGLPIEDKEKFKEWSDLVAFRLGKPGEIFELGKKYLELIGYVKDHLNSGTEVVSRVVNSNLSDIEKLGYIILLLIAGNETTTNLISNSVIDFTRFNLWQRIREENLYLKAIEEALRYSPPVMRTVRKTKERVKLGDQTIEEGEYVRVWIASANRDEEVFHDGEKFIPDRNPNPHLSFGSGIHLCLGAPLARLEARIAIEEFSKRFRHIEILDTEKVPNEVLNGYKRLVVRLKSNE”, the “soluble on expression in E. coli” value is given as “soluble”.

Consider “MYEGESVVQLAKRMIEHLLKWGVTDAFTDKQIYTILEKAESTLKPLPAMLQVEHPITIVGDIHGQLDALIRYFDAVGYPPKVQFLFLGDYVDRGAKSFEVSLLLFCYKIRYPHLNVFNELPLCARVGQRILCMHGGISQNCNSWESFKALKKPNTPLTCDEGLQVDLMWADPTQDKCNTFAMNKQRAISVVFGQKGLDDFLKKLGLSLIVRAHEVSQEGFNFLFNKKCVTVFSAPYYCGNDTNCGAIMHVSDSYELSFTVLRPRMIATPENFEIVKLMENNYKGLMVASPDPNRGRHLQSADVPQPTPPSVQLVPPVTKPVEIKKQ”, for which the “soluble on expression in E. coli” value is reported as “not soluble”.

On to “MYEWLNALPKAELHLHLEGTLEPELLFALAERNRIALPWNDVETLRKAYAFNNLQEFLDLYYAGADVLRTEQDFYDLTWAYLQKCKAQNVVHVEPFFDPQTHTDRGIPFEVVLAGIRAALRDGEKLLGIRHGLILSFLRHLSEEQAQKTLDQALPFRDAFIAVGLDSSEVGHPPSKFQRVFDRARSEGFLTVAHAGEEGPPEYIWEALDLLKVERIDHGVRAFEDERLMRRLIDEQIPLTVCPLSNTKLCVFDDMSQHTILDMLERGVKVTVNSDDPAYFGGYVTENFHALQQSLGMTEEQARRLAQNSLDARLVK”, for which the “soluble on expression in E. coli” value is reported as “not soluble”.

Turning to “MYHWFALRSVPLVGNVLYRRLLDRFGSPEAVFRASDAELASVRGVSSAVAASIRGHDPRAFAESECERVRRAGVRIVTIRDPDYPPLLLQIADPPPYLYVKGDPTGLEPAVAVVGSRRATVYGRTVTARLAEDLARRGVAVVSGMARGIDTAAHQGALAGEGRTVGVLGCGIDVVYPPENRALFARVADRGALVSEFPLGMGPLAENFPRRNRIISGMCRGVLVVEAAERSGSLITAQMALDQGRDVFAIPGNITSSGSSGTNRLIREGAKLVAGVEDILEELVPRAAAAVAVAPPLPPLPAGEAALMAMFGADPLHIDEIIAKSALTVGEVSAMLLRLELKGVVTQLPGKFFHAN”, the “soluble on expression in E. coli” value was “not soluble”.

Take “MYKDLEGKVVVITGSSTGLGKSMAIRFATEKAKVVVNYRSKEDEANSVLEEIKKVGGEAIAVKGDVTVESDVINLVQSAIKEFGKLDVMINNAGLENPVSSHEMSLSDWNKVIDTNLTGAFLGSREAIKYFVENDIKGTVINMSSVHEKIPWPLFVHYAASKGGMKLMTETLALEYAPKGIRVNNIGPGAINTPINAEKFADPEQRADVESMIPMGYIGEPEEIAAVAAWLASSEASYVTGITLFADGGMTLYPSFQAGRG”: the “soluble on expression in E. coli” value is “soluble”.

“MYKIVTVKDVVRIPPRMFTMDPKEAAMLVLRDTYEGTYDRDEGVILSIVEVKEVGDGIIVPGDGATYHEVVFDVLVWEPKRDEVVEGTVVDVVPFGAFIRIGPMDGLVHISQLMDDYVVYDERNKQFVGKEKKYLLKIGDAVRARIITVSPKSRVIRENRIGLTMRQPGLGKFEWIEKEKRKEKEGKK”: the “soluble on expression in E. coli” value is reported as “soluble”.

For “MYLAYYGFAEKPFQLKPDPNFFFPSRGHKRAAAYLEYGLSQEDGFIIITGDVGAGKTTLMRYLFQKLRQERVAAAQLVSTRLDPDDALRMVAAAFGLSYEGLSKAALLLELERFMRKCERESTRVLLVVDEAQNLLPQTLEELRMLSNFQSDNRPLLQTFLLGQPEFRRTLLGSQMQQLRQRVIATYHLGPLDQAETRAYIEHRLQKAGWNGSPVLQDEIFEVIHNFSAGIPRKINLFCDRLLIMGCLEELQTLGKAEANEVMLDIQKEFDLAVSPELEHHHHHH”, the “soluble on expression in E. coli” value is “soluble”.

As for “MYLPDDSPAKRLLFQMVGNAINRNTQQLTQDLRAMPNWSLRFVYIVDRNNQDLLKRPLPPGIMVLAPRLTAKHPYDKVQDRNRKLYGRHITLNDGNSVKVVTISAGRDEGPDRDIIWEMFLENLEHHHHHH”, the “soluble on expression in E. coli” value is listed as “soluble”.

Take “MYLSHFGLEQLPFHLTPDTELFLGLAPHFEAIQTLSAAIEMGEGVSKLTGEVGTGKTMVCRMLLTHLGDEVALIYLPNPMLSGEELRQAVAAELQLDVASPVRVVEQIQTRLIELHQQGKRVVALVDEAQALSDEALETLRLFGNLETEQTKLLQIVLIGQPELDVRLAQHHLRQFRQRITFNANLRPLTQAETEVYIESRLQKAQAPYPLFNATLKKAVWRASQGIPRLINQICHKALLLAWHEQSPLVNQHHLFAAIHDTYDSCKPRFKTPILWGWSKP”: the “soluble on expression in E. coli” value is “not soluble”.

As for “MYQAIAQAIIKSIMADEYPTKLPTEKVLMAQYNASRNTIRKAIDVVFRHGLLRRVQGSGNFIIKQPQNTKKVLNLSIGFDQSAMVDGGPLVSKVVTFDKVTADETLAQQGNIALGDEVYRVVRLRYLNDILYDLEESYFPRTVVPFLSSESVQHSIFAFLREAYGITGSTTENYVHQVRVDAQRAELIGCPDGDKTLCLEAINYLANGTVFNFSRTFFVYPDLELYYHTENIDLQN”, the “soluble on expression in E. coli” value was “not soluble”.

Take “MYQEIKGVRVWGDPIENAVDQAVTCAQHGDVEQVLLMADHHKGYSQPVGGVVVYRNQISPSGVGYDIACGNKAVKTNVKYVDIKDQLSKIMDELAQSISFGVGRSNREKVEHDLFDDSDWSVYQEIGKQEHDNLKTLAKKQLGTVGSGNHFVDLFVEEATGDVWVANHFGSRGFGHKTASGFMNLAKGVKFSDKVKGERMEDAPTLLDLDSEIGDMYYRAMQLAGKYAYAGRDYVIQKVLDILQAEAVFSVHNHHNFAWKETHNGEEYVIVRKGATPSAPNQWGFIGGSMGDISVIVRGVDSEENRDAFYSTVHGAGRIMSRTEAAGKMNWKTRTRSGGKITPDQMKQAIKEYGVELRGGGTDESPFVYKNLADVLEAHKQTLSIEHVLKPIGVCMAGEGEFDPYKDMAGDPLEHHHHHH”: the “soluble on expression in E. coli” value is “soluble”.

As to “MYQETKQFYHLWLLAVQERDEAREHLKQSLVELSRLQECFNTILLSEDQQIPHYSYSETTDETPDHQKLYSYNNFSNESPSRFSSASSIDLVSNSTVYSSPETYDSDCYSLRTLQMGFAFEEKKDFETLVLENIGLGRMLPENGKFQQAIIEAGSLVDSLFITGPIPKWRNPPVQMLSQRPLLSHSIGKWNYGGQGIINRSFSGKMPRLSLMP”, the “soluble on expression in E. coli” value is “soluble”.

In the case of “MYRNLLNWLTILLVFPSCSGTSPTISVVCEENNVGNAIIKWETAPILKGQVKVYASTSPDFIPEENPVVTINIAKGKKTIVTNDPSQRYYYLMVFNNRYRVRVAARNVNIPGIQNFRDLGGYKSAETGKDTRWGMLYRSAQIDSIPFCSRRELKNMGIRTIIDLRSEEERHNYPQLHDEDFNVLHLPIATGNMEHILQDIRDKKIETDTIYRLVERMNRQLVTNYRKEYKELFTLLLDRNNYPVVIHCTSGKGRTGIVSALVLAALGVNEEAIMKDYRLSNDYFNIPKASRYAYKLPINSQEAITTIYSAKEDFLNAAKEQIDAEYGSVQAYLKKGIGLSAEEIERLRSILLIDNGLEHHHHHH”, the “soluble on expression in E. coli” value was “not soluble”.
